In article PMC9658990:

Experiments:
[1] = target: T1, HMW-uPA (high molecular weight urokinase), biotinylated for FLAA (human, UniProt P00749;P00749 21-177;179-431); assay: FLAA (OliGreen); BPs-T: 50 mM Bis-Tris/HCl pH 6.5, 110 mM NaCl, 5 mM MgCl2, 1 mM CaCl2, 1 mM KCl (printed KCl2), 0.05% Tween 20, 23 °C
[2] = target: T1, HMW-uPA (high molecular weight …); assay: as above; remark: listed apart in the source

Row | Binder | binding signal [1] | binding result [2]
1 | TAAGCGGGGGTGAGAGATCTGTCAGTACGAGCTGGGTTTGCG (ssDNA) [Ex-S1] | 36 % signal reduction vs uPAapt-02-FR | –
2 | CAAGCGGGGGTGAGAGATCTGTCATTACGAGCTGGGTTTGCG (ssDNA) [Ex-S25] | 99 % signal reduction vs uPAapt-02-FR | –
3 | CAAGCGGGGGTGAGATATCTGTCAGTACGAGCTGGGTTTGCG (ssDNA) [Ex-S16] | 72 % signal reduction vs uPAapt-02-FR | –
4 | CAAGCGGTGGTGAGAGATCTGTCAGTACGAGCTGGGTTTGCG (ssDNA) [Ex-S8] | 94 % signal reduction vs uPAapt-02-FR | –
5 | CAAGCGGGGGTGAGAGATCTGTCAGTACGAGCTGTGTTTGCG (ssDNA) [Ex-S35] | 27 % signal reduction vs uPAapt-02-FR | –
6 | CAAGCGGGGGTGAGCGATCTGTCAGTACGAGCTGGGTTTGCG (ssDNA) [Ex-S15] | 89 % signal reduction vs uPAapt-02-FR | –
7 | CAAGCGGGGGTGAGAGATCTGTCAGTACGAGCTGGGTTTGTG (ssDNA) [Ex-S41] | 3 % signal reduction vs uPAapt-02-FR | –
8 | CAAGCGGGGGTGAGAGATCTGTCAGTACGAGCTTGGTTTGCG (ssDNA) [Ex-S34] | 0 % signal reduction vs uPAapt-02-FR | –
9 | CAAGCTGGGGTGAGAGATCTGTCAGTACGAGCTGGGTTTGCG (ssDNA) [Ex-S6] | 50 % signal reduction vs uPAapt-02-FR | –
10 | CAAGCGGGGGCGAGAGATCTGTCAGTACGAGCTGGGTTTGCG (ssDNA) [Ex-S11] | 91 % signal reduction vs uPAapt-02-FR | –
11 | CAAGCGGGGGTGAGAGATCTGTCCGTACGAGCTGGGTTTGCG (ssDNA) [Ex-S24] | 98 % signal reduction vs uPAapt-02-FR | –
12 | CAAGCGGGGGTGAGAGATCTGTCAGTACGAGCCGGGTTTGCG (ssDNA) [Ex-S33] | 82 % signal reduction vs uPAapt-02-FR | –
13 | CAAGCGTGGGTGAGAGATCTGTCAGTACGAGCTGGGTTTGCG (ssDNA) [Ex-S7] | 34 % signal reduction vs uPAapt-02-FR | –
14 | CAAGCGGGTGTGAGAGATCTGTCAGTACGAGCTGGGTTTGCG (ssDNA) [Ex-S9] | 65 % signal reduction vs uPAapt-02-FR | –
15 | CAAGCGGGGGTGCGAGATCTGTCAGTACGAGCTGGGTTTGCG (ssDNA) [Ex-S13] | 97 % signal reduction vs uPAapt-02-FR | –
16 | CAAGCGGGGGTGAGAGATCTGCCAGTACGAGCTGGGTTTGCG (ssDNA) [Ex-S22] | 99 % signal reduction vs uPAapt-02-FR | –
17 | CAAGCGGGGGTGAGAGATCTGTTAGTACGAGCTGGGTTTGCG (ssDNA) [Ex-S23] | 13 % signal reduction vs uPAapt-02-FR | –
18 | CAAGCGGGGGTGAGAGATCTGTCAGTACGAGCTGGTTTTGCG (ssDNA) [Ex-S36] | 11 % signal reduction vs uPAapt-02-FR | –
19 | CAAGCGGGGGTGATAGATCTGTCAGTACGAGCTGGGTTTGCG (ssDNA) [Ex-S14] | 91 % signal reduction vs uPAapt-02-FR | –
20 | CAAGCGGGGGTGAGAGATCTGTCAGTCCGAGCTGGGTTTGCG (ssDNA) [Ex-S27] | 100 % signal reduction vs uPAapt-02-FR | –
21 | CAAGCGGGGGTGAGAGCTCTGTCAGTACGAGCTGGGTTTGCG (ssDNA) [Ex-S17] | 16 % signal reduction vs uPAapt-02-FR | –

Row | Binder | binding signal [1] | binding result [2]
22 | CAAGCGGGGGTGAGAGATCTGTCAGTATGAGCTGGGTTTGCG (ssDNA) [Ex-S28] | 95 % signal reduction vs uPAapt-02-FR | –
23 | CAAGCGGGGGTGAGAGATCTGTCAGTACGAGCTGGGTTTGCT (ssDNA) [Ex-S42] | 17 % signal reduction vs uPAapt-02-FR | –
24 | CAAGCGGGGGTGAGAGATCTGTCAGTACGATCTGGGTTTGCG (ssDNA) [Ex-S31] | 100 % signal reduction vs uPAapt-02-FR | –
25 | CAAGCGGGGGTGAGAGATCTGTCAGTACGCGCTGGGTTTGCG (ssDNA) [Ex-S30] | 89 % signal reduction vs uPAapt-02-FR | –
26 | CAAGCGGGGGTGAGAGATCTGTCAGTACGAGCTGGGTTCGCG (ssDNA) [Ex-S39] | 65 % signal reduction vs uPAapt-02-FR | –
27 | CAAGCGGGGGTGAGAGATCCGTCAGTACGAGCTGGGTTTGCG (ssDNA) [Ex-S20] | 95 % signal reduction vs uPAapt-02-FR | –
28 | CAAGCGGGGGTGAGAGATCTGTCAGTACGAGCTGGGTCTGCG (ssDNA) [Ex-S38] | 53 % signal reduction vs uPAapt-02-FR | –
29 | CAAGCGGGGGTTAGAGATCTGTCAGTACGAGCTGGGTTTGCG (ssDNA) [Ex-S12] | – | binds
30 | CAAGCGGGGGTGAGAGATCTGTCAGCACGAGCTGGGTTTGCG (ssDNA) [Ex-S26] | 89 % signal reduction vs uPAapt-02-FR | –
31 | CAAGCGGGGTTGAGAGATCTGTCAGTACGAGCTGGGTTTGCG (ssDNA) [Ex-S10] | 78 % signal reduction vs uPAapt-02-FR | –
32 | CAAGCGGGGGTGAGAGATCTTTCAGTACGAGCTGGGTTTGCG (ssDNA) [Ex-S21] | 92 % signal reduction vs uPAapt-02-FR | –
33 | CAAGCGGGGGTGAGAGATCTGTCAGTACGAGCTGGGCTTGCG (ssDNA) [Ex-S37] | – | binds
34 | CAAGCGGGGGTGAGAGATCTGTCAGTACGAGCTGGGTTTTCG (ssDNA) [Ex-S40] | 3 % signal reduction vs uPAapt-02-FR | –
35 | CAATCGGGGGTGAGAGATCTGTCAGTACGAGCTGGGTTTGCG (ssDNA) [Ex-S4] | 85 % signal reduction vs uPAapt-02-FR | –
36 | CAAGCGGGGGTGAGAGATCTGTCAGTACTAGCTGGGTTTGCG (ssDNA) [Ex-S29] | 47 % signal reduction vs uPAapt-02-FR | –
37 | CAAGTGGGGGTGAGAGATCTGTCAGTACGAGCTGGGTTTGCG (ssDNA) [Ex-S5] | 56 % signal reduction vs uPAapt-02-FR | –
38 | CCAGCGGGGGTGAGAGATCTGTCAGTACGAGCTGGGTTTGCG (ssDNA) [Ex-S2] | – | binds
39 | CAAGCGGGGGTGAGAGACCTGTCAGTACGAGCTGGGTTTGCG (ssDNA) [Ex-S18] | 94 % signal reduction vs uPAapt-02-FR | –
40 | CAAGCGGGGGTGAGAGATCTGTCAGTACGAGTTGGGTTTGCG (ssDNA) [Ex-S32] | 63 % signal reduction vs uPAapt-02-FR | –
41 | CAAGCGGGGGTGAGAGATTTGTCAGTACGAGCTGGGTTTGCG (ssDNA) [Ex-S19] | 0 % signal reduction vs uPAapt-02-FR | –
42 | CACGCGGGGGTGAGAGATCTGTCAGTACGAGCTGGGTTTGCG (ssDNA) [Ex-S3] | 18 % signal reduction vs uPAapt-02-FR | –
